Publication doi:10.1101/2021.02.03.429564

How the values were obtained:
[1] = target: full-length recombinant human RAD51 protein, N-terminal 6xHis-tagged (human) (UniProt Q06609)
[2] = target: full-length recombinant human RAD51 protein, N-terminal 6xHis-tagged (human) (UniProt Q06609); experiment: static light scattering
[3] = target: full-length recombinant human RAD51 protein, N-terminal 6xHis-tagged (human) (UniProt Q06609); experiment: MST
[4] = target: T1, full-length recombinant human RAD51 protein, N-terminal 6xHis-tagged (human), Q06609; experiment: static light scattering; settings: remark: other sources report otherwise
T1 chain: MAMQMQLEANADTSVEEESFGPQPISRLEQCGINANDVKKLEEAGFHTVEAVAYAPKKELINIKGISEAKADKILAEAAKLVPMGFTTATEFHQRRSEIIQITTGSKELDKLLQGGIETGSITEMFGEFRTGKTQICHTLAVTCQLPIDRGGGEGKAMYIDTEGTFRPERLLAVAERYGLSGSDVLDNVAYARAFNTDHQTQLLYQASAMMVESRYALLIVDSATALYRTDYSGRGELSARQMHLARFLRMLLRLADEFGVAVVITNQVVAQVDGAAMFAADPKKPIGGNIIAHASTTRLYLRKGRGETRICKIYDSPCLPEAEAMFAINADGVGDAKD

## Myristoylated BRC4 (BRC4-ss-Myr) (peptide)
[1]
  IC50 of inhibition of homologous recombination in BxPC-3 cells: 5 µM

## BRC4 peptide (fourth BRC repeat of the BRCA2 protein)
[2]
  EC50: 4 to 5 µM
[3]
  EC50: 0.06 to 0.08 µM

B1: full-length recombinant human RAD51 protein, N-terminal 6xHis-tagged, Q06609 1-339 (natural protein)
chain: T1 chain
[4]
  stoichiometry N: 40 protomers
